This data set in a line: soluble on expression in E. coli; label from the status in PepcDB or PDB records.
On to “MIVDLPDTTTTAVNKKLDELREKIGAVAMGRVLTLIIAPDSEAMLEESIEAANDASHEHPSRIIVTMRGDPYADRPRLDAQLRVGADAGAGEFVVLRLSGPLAGHADSVVIPFLLPDIPVVAWWPDIAPAVPAQDALGKLAIRRITDATNAIDPLSAIKSRLAGYGAGDTDLAWSRITYWRALLTSAVDQPRHEPIESALVSGLKTEPALDVLAGWLASRIEGPVRRAVGELKVELVRNSETIVLSRPQEGITATLTRTGKPDALVPLARRVTGECLAEDLRRLDPDEIYCAALEGIKKVQYR”, for which the “soluble on expression in E. coli” value is “not soluble”.

With “GSHMNNEDFSQWSVDDVITWCISTLEVEETDPLCQRLRENDIVGDLLPELCLQDCQDLCDGDLNKAIKFKILINKMRDSKLEWKD”, the “soluble on expression in E. coli” value is recorded as “soluble”.

As to “MACGLALKRPLQHEYESFLTDETYNGEAKRARTQCPPFRAQMGTIAATLPSTSTFAQKFKEQEESVFQAATLMTRLSRNQLKTYLSSEVKNLRKRKAIPRSNDFDDDGDQRGDGCSSNYSKAYRAPSSPKSGSDSEGEAPSTSVTDRSSAKREFTMANVQMICERLLKQQEIRLRNEFEMVLTKKLDEQHQQYVQFAAEQLNSKCVSTGDDYSYSYLS”, the “soluble on expression in E. coli” value is on record as “not soluble”.

With “MSLIIRKLFEFENAHIVRFCSSKRCKSSIHGHSYKVEVLLESKYLDNAGMVYDFGLLKTYIRQIIDSFDHAITLFKYDDAKYLEEMKKYSSRWICLPVNVSAENFCRVFFILIDALLKQTKMVNGEQGVTLQSIIVHETRTGYAQGFREDAYSELMPKISLQDIEFSNGIKAEWNDIDFYNKLKNEEIFINPKEEGHHHHHH”, the “soluble on expression in E. coli” value is “soluble”.

On to “MAVLSFSFGGEITLKKPPESLKKYYPPASEKFEFLNNMHTMSTAFYAVQLNINDENWEKAKEWAQKLVKTYRETAEMVPEWKDYFDFSKADAYLNAVSSKNVDAVIKTARELGQTCAKCHRDNEVAVKIYYHFPDFHSVKVEDPIEFMEMDLGDFMKKLANSLKATNIYISQGEYEKAKEHGINFVERARAVKETCTKCHTKEAEVEAITGKEYDQALKALENLFNAEKLDTQKVAQNMKKVTVTCYTCHNVHLIPAKIKEALAK”, for which the “soluble on expression in E. coli” value is recorded as “not soluble”.

On to “MAHHHHHHVGTGSNDDDDKAGLVEGQNYTVLANPIPQQQAGKVEVLEFFGYFCPHCAHLEPVLSKHAKSFKDDMYLRTEHVVWQKEMLTLARLAAAVDMAAADSKDVANSHIFDAMVNQKIKLQNPEVLKKWLGEQTAFDGKKVLAAYESPESQARADKMQELTETFQIDGTPTVIVGGKYKVEFADWESGMNTIDLLADKVREEQKAAQ”, for which the “soluble on expression in E. coli” value was “soluble”.

On to “MDMPKPPFVIYKGKVEEEFARLHKDGKSLLKAESKFVQFLGLQELTDRACDHVELANPTKNTIIFNIRTPTSPCFFVKPHVGMIDPGGKATLYFTFKGRCHRVPSDYCWIYSIYQLVVDEKTTAFIKEDEFSSQNLRSAWIKHGRKQVNNILHLASSFKAGKPKFECRDGHRKFLERKIYLNDLGDVENSGKSKTENTTDITPANMKKGKLNKAASSDTMDDLPKTAD”, for which the “soluble on expression in E. coli” value is given as “not soluble”.

As for “MGGDSVAIFTADMSVSGELRNDIELHLRRGIESDALRLVYLPEVDLRTGDIVGTEALVRWQHPTRGLLAPGCFIPVAESINLAGELDRWVLRRACNEFSEWQSAGLGHDALLRINVSAGQLVTGGFVDFVADTIGQHGLDASSVCLEITENVVVQDLHTARATLARLKEVGVHIAIDDFGTGYSAISLLQTLPIDTLKIDKTFVRQLGTNTSDLVIVRGIMTLAEGFQLDVVAEGVETEAAARILLDQRCYRAQGFLFSRPVPGEAMRHMLSARRLPPTCILEHHHHHH”, the “soluble on expression in E. coli” value was “not soluble”.

Regarding “MFQPQDDQDACYDNSIHYTDSLLGQVFELLKDRRASVMYFADHGLERDPTKKNVYFHGGREASQQAYHVPMFIWYSPVLGDGVDRTTENNIFSTAYNNYLINAWMGVTKPEQPQTLEEVIAHYKGDSRVVDANHDVFDYVMLRKEFTEDKQGNPTPEGQG”, the “soluble on expression in E. coli” value is listed as “not soluble”.

In the case of “MSLADVDTGTLTIKGNIAESPCKFEAGGDSVSINMPTVPTSVFEGKAKYSTYDDAVGVTSSMLKISCPKEVAGVKLSLITNDKITGNDKAIASSNDTVGYYLYLGDNSDVLDVSAPFNIESYKTAEGQYAIPFKAKYLKLTDNSVQSGDVLSSLVMRVAQDEGHHHHHH”, the “soluble on expression in E. coli” value is given as “soluble”.

In the case of “MSLRKYPEYTWDLTTIFKDDEAFEAAFKEVENELGKEEQFKGHIGDSAETLYNALELEDTLGTKLEKVYVYAHLKQDQDTTNDKYTGMESRAHQLIIKFSSAWSFLVPEILQIDEDKIQSFVNSYDKLQKFAFDLKLINEKRPHILDAETEKLLTEAQDALSTPSNVYGMFSNADLVFEDAIDKDGNAHPLTQGTFIKYLESDDRKLRESAFRNVYKAYGAHNNTLGATLAGEVKKNVFNARTHNYKTAREKALSNNHIPENVYDNLVKTVHKYLPLLHRYTELRKELLGLDDLKMYDLYTPLIKDIKFEMPYEEAKEWMLKALEPMGEEYLNVVKEGLNNRWVDVYENKGKRSGGYSSGAHLTNPFILLNWSNTISDLYTLVHEFGHSAHSYFSRKFQPSNSSDYTIFVAEVASTCNEALLSDYMDKHLDDEKRLLLLNQELERFRATLFRQTMFAEFEHKIHAIEEAGEPLTPTRMNEEYAKLNKLYFGDSVETDEDISKEWSRIPHFYMNYYVYQYATGYSAAQSLSHQILTEGKPAVDRYINEFLKKGSSNYPIEILKNAGVDMTTPEPIEQACEVFEQKLNAFEKLMKEGHHHHHH”, the “soluble on expression in E. coli” value was “soluble”.

In the case of “MGHHHHHHSHMFGYVVVNEQNSIVFLDGNEEFKTIFQSLIQSEITSRKSDLDSASSGVGSSTCTEEQESSLDHFKKPNVVFNSSEISHILLPLILLYRSTSEKTKDPITEMSSQFGTISISKFYHNYLVLVFANDDRKRIEVSQTIEHTIATLFGPLIAFCHTDLTTVKKPKEHLACALTRKLSYSPKC”, the “soluble on expression in E. coli” value is on record as “not soluble”.

On to “MFLSVVTVAFRNYEGVVKTWRSLRNLARDPGLSFEWIVVDGGSEDGTREFLQKRHGEFNLRFISEKDRGIYDAMNKGIALAQGRYTLFLNSGDAFHDDAALFVRQLARQKGEAMYIGDALLDFGGGHKIRRKAKPGYYIYHSLPASHQAIFFPTAALKKYPYDLQYHVSSDYALAARLYKAGYPFRRINGLVSEFSMGGVSTSNNLELCQDAKNVQRKILRVPGFWAQLSYLLRLKTTGKTKARYNKVLEHHHHHH”, for which the “soluble on expression in E. coli” value is recorded as “not soluble”.

“MGSDKIHHHHHHMTKRHTETKAYVKTALTTLLTEQSFETLTVSDLTKKAGINRGTFYLHYTDKFDMMNHFKNDTLDDLYRLLNQAEIYTDTRQVLNQTLSYLIEHREFITALATISYLKFPQLIKDFCYQFLTTITGFQDIVTNQYHIPYPYALEVYLASIESIISYWIANGYQETTEEVADIILKAVTLDN”: the “soluble on expression in E. coli” value is listed as “not soluble”.

On to “MAIIASTFGTGLSYAGELPFKPVTGGEVGRKQQRMVVVRAEGGGGINPEIRKNEDKVVDSVVVTELSKNITPYCRCWRSGTFPLCDGSHVKHNKANGDNVGPLLLKKQ”, for which the “soluble on expression in E. coli” value is on record as “soluble”.

“MKQYFYERECQNPELREQSLLERLPSFITYAKQECQHYGQILQHIDADKITSRELLAQLPITRKSDLMKLQAKNSPLGGLNANKANIGRIFQSPGPIYDPENTSDDWWRLGQAFYAAGFRAGDIVQNCLSYHLTPGGFILDSGARACGCVVIPAGPGQTEQQLDIIEHLKPQGYSGTPSFLKILLDKAKAENRDISSVTKALVTGEALPKGLRAEFDAAGINTLQAYASADVGLIGFESKSDDGFIIAEDLLVEIVRPGTLEPVADGEIGEVVVTSFNVDYPLIRFATGDLSAVKSSESACGRTNMCIKGWLGRADQTTKIKGMFVHAEQIEQVRQAYPHIAKMRLSVTQVNYNDQMNLQCELDSSGYSEADIAGAIENISSSLKKTTKLNGAVELVAVGTLADDGKVIDDLRPIG”: the “soluble on expression in E. coli” value was “not soluble”.

For the sequence “MSRRGLEREGGKPVSSDAKGLKRVDVRLKWDPSPWDRPPHHLDIIATTYAADAPHGRPVYVVQFDKRSPDGTINMSRHSRTGQGFGFVEEMTFELDRLSPSIARVIVGVAIHQDNGHKTFDDVSNTGVVVAEGYRELLTDGFERVAGATAATVAEFTRNASGAWEFREAVRGFDSDPVLFATEMGSAPRP”, the “soluble on expression in E. coli” value is on record as “soluble”.

For “SNAMNNIRLLNQNDLDSYIELMKFGHHNYEWDRYYLENVSIDRLKTILSNHTDYWNIFGAFEDDELVATCTLKQMNYVGKCHKAILENNFVKNNDEIVNRELINHIIQYAKEQNIETLMIAIASNNISAKVFFSSIGFENLAFEKNASKIGNEYFDENWLIYSTTESSD”, the “soluble on expression in E. coli” value is reported as “soluble”.

For the sequence “MARFSIEGKSLKLDAITTEDEKSVFAVLLEDDSVKEIVLSGNTIGTEAARWLSENIASKKDLEIAEFSDIFTGRVKDEIPEALRLLLQALLKCPKLHTVRLSDNAFGPTAQEPLIDFLSKHTPLEHLYLHNNGLGPQAGAKIARALQELAVNKKAKNAPPLRSIICGRNRLENGSMKEWAKTFQSHRLLHTVKMVQNGIRPEGIEHLLLEGLAYCQELKVLDLQDNTFTHLGSSALAIALKSWPNLRELGLNDCLLSARGAAAVVDAFSKLENIGLQTLRLQYNEIELDAVRTLKTVIDEKMPDLLFLELNGNRFSEEDDVVDEIREVFSTRGRGELDELDDMEELTDEEEEDEEEEAESQSPEPETSEEEKEDKELADELSKAHI”, the “soluble on expression in E. coli” value is given as “soluble”.

“MSKIVEVSKSPYAKLKTIPVGSVRVNGFMGKYFETLVNVTLPTQYDLLENTGRLDNFRIAAGKMEGSYKTLFPFDDTDVYKWAETVSFALANRKLPELEKILDSVIEEVKAAQDEDGYLGTYLSGDRKKERWTNLAWNHELYNAGHLIQAAVAHRRVTGKNTLFEVAKRFADHIYNTFGPEKKEGAPGHPEVEMALVELYRETGDRKYLDLARYFIYARGKGLASVPRNPGPEYFIDHKPFVELEEITGHAVRALYLCSGATDLYLETGDEKIWQALNRLWENFVTKKMYITGGAGSRHDWESFGEEYELPNRRSYAESCASIANFMWNFRMLLATGDGKFADVMEQVLYNGLLSGISLDGKHYFYFNPLEDYGRTRRQKWFDCACCPPNLARFIVSFPGYMYTTSDDGVQVHLYEKSTARLDFKGSVVEIEQETDYPWSGEVAFTIKTDIEEPFSIYLRLPSWADDFVLRVDGKAVIAKPQNGYVKLSQSWKGKHTVELSLPMKAVFIEAHPFVRDDLGKAAVKRGPVVYCIEQADNPDFHVWTLVLNSESLKEEKGKILDREAVFLKGTGRALDISEWEGKLYRKLSEVREKTVEFTLIPYHMWANREPGAMAVWLKR”: the “soluble on expression in E. coli” value is “soluble”.

Consider “MSSQSSSADGKVTLKFFHRWPKEPEKSYFEEVVKEFEKDHPDIDIQIEAVLNDSYKDKIKVMLGTTSPPDIYFSWSDEFAFKFIRGNKALDLSSYYKNDTDWSSQLVQSQITPFTYENKQYGVPWQMDAKSFFYNKDIFQKLNLDPPKTWDELIDVSKKLKEHGYTPISFGTKATWTISHYIGTLNQRMVDEKTREKDYNAKTGEFTDEGYVKALEKLQELMPYFNKHVNSVDHEYVRQQFKSGKSAMIYAETAEIKLVEPVNLGMFPFPEISGQKGSSEALTGAPEGFMISSRTKHPKEAMEFLQFLTSKRMGEKLVKDVGKYSAVQGTATEENATAIQREAVQHIVDAKSMVPWFDMDVDVEVADAYLTGVQQMLGGDMTPQQVMKAVQKAAKQVRASAELEHHHHHH”, for which the “soluble on expression in E. coli” value is reported as “soluble”.

Regarding “MSKPWLFTVHGTGQPDPLGPGLPADTARDVLDIYRWQPIGNYPAAAFPMWPSVEKGVAELILQIELKLDADPYADFAMAGYSQGAIVVGQVLKHHILPPTGRLHRFLHRLKKVIFWGNPMRQKGFAHSDEWIHPVAAPDTLGILEDRLENLEQYGFEVRDYAHDGDMYASIKEDDLHEYEVAIGRIVMKASGFIGGRDSVVAQLIELGQRPITEGIALAGAIIDALTFFARSRMGDKWPHLYNRYPAVEFLRQI”, the “soluble on expression in E. coli” value is recorded as “soluble”.

Source of the values: the DeepSol protein solubility set.
